Reference: the supplement of paper PMC10567573

B1: TRIM43 (parent)
chain: FCDMDKSLLCLLCSNSQEHGAHKH
B2: KLHL20 (parent)
chain: YQDMIYAVGGRDDTTELSSAERYN

Variants of: B1
Experiment: protein stability index of a GFP-peptide fusion (GPS, HEK-293T) (PSI 1-6); higher = more stable
Conditions: c terminus: a fixed tail appended
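Note: lentivirally expressed fusions sorted by FACS into six bins by GFP to DsRed ratio, PSI derived from sequencing read proportions per bin multiplied by bin number.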

Protein stability index, by site and new letter:
H22: V 1.7; Y 1.87; C 2.59; A 1.77; W 1.45; N 1.75; M 1.48; E 1.53; I 2.17; G 1.78; D 2.11; P 1.69; T 1.79; R 1.84; F 2.17; L 1.61; Q 1.91; S 1.73; K 1.73
G20: R 1.9; S 1.99; T 2.12; Y 2.28; W 1.56; V 2.35
H24: P 1.69; E 1.65; I 1.7; W 1.84; C 2.4; A 1.72; F 1.43; N 2.26; K 1.89; V 2.04; S 1.58; L 1.53; D 2.18; G 1.77; M 1.48; R 1.86; Y 1.36; T 1.66; Q 2.22
A21: E 1.83; G 2.26; R 2.16; T 2.07; Q 2.23; L 1.97; S 2.02; K 1.98; V 1.85; W 1.54; F 2.1; D 2.08; I 1.47; P 2.22; N 1.84; M 2.33; C 2.38; Y 1.48; H 1.98
K23: G 1.53; V 2.06; M 1.91; P 2.06; N 1.89; E 2.05; R 2.18; C 1.82; Q 1.64; Y 1.43; L 1.63; F 1.82; W 1.94; T 2.02; A 2.06; S 2.25; H 2.13; D 2.4; I 2.17

Variants of: B2
Experiment: as above
Conditions: c terminus: a fixed tail appended

Protein stability index, by site and new letter:
D13: G 2; N 2.01; K 2.23; P 2.03; I 2.26; A 1.66; C 1.8; R 1.75; L 2.06; Q 2.11; M 1.34; H 1.98; S 2.18; W 1.77; T 2.18; F 2.08; V 2.49; Y 1.97; E 2.36
Y6: L 2.88; R 3.37; Q 3.87; M 2.98; W 2.51; I 3.08; C 2.71; D 4.74; V 3.01; S 3.88; K 3.43; F 2.14; G 3.77; T 3.94; P 3.41; A 3.85; E 4.55; H 3.27; N 3.98
I5: E 3.98; W 2.48; F 1.79; M 2.77; C 2.52; V 2.53; R 2.71; Q 4.11; T 3.17; G 3.14; H 2.65; L 2.61; A 2.28; Y 2.21; K 3.39; P 2.72; S 3.53; N 3.09; D 3.99
Y1: R 4.89; N 4.96; C 4.21; M 4.1; H 4.5; S 4.89; D 5.33; P 4.57; L 4.26; A 4.78; F 1.89; K 4.39; W 2.85; V 4.5; T 4.58; G 4.66; Q 4.75; E 5.08; I 4.05
G9: A 1.94; I 1.51; K 2.07; P 2.32; W 1.92; Y 1.32; Q 2.27; V 2.02; T 2.4; F 2.15; D 2.88; R 2.36; L 2.01; N 1.95; H 1.94; S 1.85; C 2.23; E 2.53; M 2.17
V8: N 2.81; H 2.84; I 1.97; G 2.81; A 2.77; D 3.45; E 3.38; R 2.52; L 1.86; Y 2.09; M 1.75; C 2.37; F 1.87; S 2.65; Q 2.6; K 2.44; W 1.94; T 2.41; P 2.79
G10: W 1.91; H 2.12; P 2.44; L 1.78; K 1.83; C 2.23; T 1.82; S 2.09; V 2.05; F 2.27; D 2.81; E 2.92; M 1.87; Y 1.8; R 1.86; A 1.83; Q 2.61; N 2.45; I 1.62
Q2: C 2.02; E 5.02; V 1.96; G 3.28; R 3.6; K 4.2; P 3.58; D 4.86; I 1.58; L 2.85; Y 3.17; M 3.03; W 2.87; A 2.3; F 2.79; H 2.83; N 4.27; S 3.61; T 2.22
D3: P 3.4; K 2.79; H 2.15; L 1.81; W 2.03; V 1.86; E 2.48; T 1.56; Q 3.08; C 2.15; G 1.47; I 2.26; A 1.7; Y 1.77; N 2.63; M 1.81; R 2.83; S 1.99; F 1.88
M4: W 2.85; I 2.4; Q 2.66; P 2.6; H 2.55; G 2.48; E 3.68; R 2.75; L 2.31; C 2.68; F 1.84; A 2.51; V 3.02; N 3.12; K 2.65; S 3.27; T 3.15; D 3.48; Y 2.77
A7: P 3.07; G 3.01; T 2.27; W 2.92; K 2.12; Y 2.27; S 2.55; I 1.8; V 2.16; M 1.96; D 3.34; Q 2.29; H 2.42; F 1.69; N 2.92; L 2.01; E 3.56; C 2.17; R 1.76
D12: M 1.76; R 1.78; H 2.17; Q 2.09; C 2.01; V 1.53; S 2.32; P 2.34; K 2.1; T 1.58; G 2.47; Y 1.9; N 2.43; I 1.6; W 1.8; E 2.74; L 2.21; A 2.33; F 1.45
T14: E 2.78; F 2.18; A 1.82; C 2.47; D 2.79
R11: D 3.01; P 2.57; Q 2.75; K 2.55; I 2.44; W 2.08; S 2.9; C 2.69; V 2.16; Y 1.91; L 1.99; A 2.54; G 2.33; T 2.23; H 2.1; E 3; N 2.49; M 2.32; F 2.08
